The source of these data is patent publication US20050265970A1 (UNIVERSITY OF CHICAGO, published 2005).

First the molecules themselves.
B2: GST-MKK7 (GST-JNKK2; human JNKK2 in pGEX-2T) (enzyme)
chain: MAASSLEQKLSRLEAKLKQENREARRRIDLNLDISPQRPRPTLQLPLANDGGSRSPSSESSPQHPTPPARPRHMLGLPSTLFTPRSMESIEIDHKLQEIMKQTGYLTIGGQRYQAEINDLENLGEMGSGTCGPVWKMRFRKTGHVIAVKQMRRSGNKEENKRILMDLDVVLKSHDCPYIVQCFGTFITNTDVFIAMELMGTCAEKLKKRMQGPIPERILGKMTVAIVKALYYLKEKHGVIHRDVKPSNILLDERGQIKLCDFGISGRLVDSKAKTRSAGCAAYMAPERIDPPDPTKPDYDIRADVWSLGISLVELATGQFPYKNCKTDFEVLTKVLQEEPPLLPGHMGFSGDFQSFVKDCLTKDHRKRPKYNKLLEHSFIKRYETLEVDVASWFKDVMAKT
notes: On glutathione beads in pull-downs; also called recombinant JNKK2; not shown: glutathione S-transferase encoded by the pGEX-2T vector

Ends that are not written are not given here.

Experiment [1] concerns the target T1, GST (glutathione-S-transferase, control) (UniProt P08515 1-218 = GST).
T1 construct: Control beads in GST pull-downs
Put plainly: GST pull-down of 35S-labeled in vitro translated protein.
Description: Binding assays were performed according to standard procedures, and ³⁵S-labeled proteins that bound to beads, as well as 2 μl of each in vitro translation mix (input), were then resolved by SDS polyacrylamide gel electrophoresis.

Experiment [2] concerns the target T2, Gadd45β (1-68) (EcoRV digestion), in vitro translated as GFP fusion (murine, UniProt P22339 1-68, 35S-methionine label).
T2 construct: range 1-68; not shown: GFP of pEGFP-N1 (Clontech) with a short oligonucleotide-encoded linker
T2 sequence (looked up): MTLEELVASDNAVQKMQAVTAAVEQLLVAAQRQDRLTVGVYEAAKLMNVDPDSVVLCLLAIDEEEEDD
The experiment can be described thus: GST pull-down with GST-JNKK2 beads and 35S-labeled in vitro translated Gadd45β truncations.

Experiment [3] addresses B2. The experiment is described as above.
The target of experiment [4] is T3, GST-Gadd45β (full-length murine Gadd45β directly fused to GST) (murine, UniProt P22339 1-160).
T3 construct: range 1-160; Made in E. coli BL21, on glutathione-sepharose beads in pull-downs; purified protein in kinase assays; not shown: glutathione S-transferase encoded by the pGEX-3X vector
T3 sequence (looked up): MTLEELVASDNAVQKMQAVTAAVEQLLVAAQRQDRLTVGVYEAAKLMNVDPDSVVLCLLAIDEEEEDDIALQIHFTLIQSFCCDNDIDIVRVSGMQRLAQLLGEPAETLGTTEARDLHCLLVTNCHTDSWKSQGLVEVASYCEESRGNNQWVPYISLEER
Put plainly: GST pull-down of 35S-labeled in vitro translated MKK7 peptides.

Experiment [5] has as its target T4, endogenous MEKK1 of 3DO cells (UniProt P53349 2-1493, limits assumed).
T4 sequence (looked up): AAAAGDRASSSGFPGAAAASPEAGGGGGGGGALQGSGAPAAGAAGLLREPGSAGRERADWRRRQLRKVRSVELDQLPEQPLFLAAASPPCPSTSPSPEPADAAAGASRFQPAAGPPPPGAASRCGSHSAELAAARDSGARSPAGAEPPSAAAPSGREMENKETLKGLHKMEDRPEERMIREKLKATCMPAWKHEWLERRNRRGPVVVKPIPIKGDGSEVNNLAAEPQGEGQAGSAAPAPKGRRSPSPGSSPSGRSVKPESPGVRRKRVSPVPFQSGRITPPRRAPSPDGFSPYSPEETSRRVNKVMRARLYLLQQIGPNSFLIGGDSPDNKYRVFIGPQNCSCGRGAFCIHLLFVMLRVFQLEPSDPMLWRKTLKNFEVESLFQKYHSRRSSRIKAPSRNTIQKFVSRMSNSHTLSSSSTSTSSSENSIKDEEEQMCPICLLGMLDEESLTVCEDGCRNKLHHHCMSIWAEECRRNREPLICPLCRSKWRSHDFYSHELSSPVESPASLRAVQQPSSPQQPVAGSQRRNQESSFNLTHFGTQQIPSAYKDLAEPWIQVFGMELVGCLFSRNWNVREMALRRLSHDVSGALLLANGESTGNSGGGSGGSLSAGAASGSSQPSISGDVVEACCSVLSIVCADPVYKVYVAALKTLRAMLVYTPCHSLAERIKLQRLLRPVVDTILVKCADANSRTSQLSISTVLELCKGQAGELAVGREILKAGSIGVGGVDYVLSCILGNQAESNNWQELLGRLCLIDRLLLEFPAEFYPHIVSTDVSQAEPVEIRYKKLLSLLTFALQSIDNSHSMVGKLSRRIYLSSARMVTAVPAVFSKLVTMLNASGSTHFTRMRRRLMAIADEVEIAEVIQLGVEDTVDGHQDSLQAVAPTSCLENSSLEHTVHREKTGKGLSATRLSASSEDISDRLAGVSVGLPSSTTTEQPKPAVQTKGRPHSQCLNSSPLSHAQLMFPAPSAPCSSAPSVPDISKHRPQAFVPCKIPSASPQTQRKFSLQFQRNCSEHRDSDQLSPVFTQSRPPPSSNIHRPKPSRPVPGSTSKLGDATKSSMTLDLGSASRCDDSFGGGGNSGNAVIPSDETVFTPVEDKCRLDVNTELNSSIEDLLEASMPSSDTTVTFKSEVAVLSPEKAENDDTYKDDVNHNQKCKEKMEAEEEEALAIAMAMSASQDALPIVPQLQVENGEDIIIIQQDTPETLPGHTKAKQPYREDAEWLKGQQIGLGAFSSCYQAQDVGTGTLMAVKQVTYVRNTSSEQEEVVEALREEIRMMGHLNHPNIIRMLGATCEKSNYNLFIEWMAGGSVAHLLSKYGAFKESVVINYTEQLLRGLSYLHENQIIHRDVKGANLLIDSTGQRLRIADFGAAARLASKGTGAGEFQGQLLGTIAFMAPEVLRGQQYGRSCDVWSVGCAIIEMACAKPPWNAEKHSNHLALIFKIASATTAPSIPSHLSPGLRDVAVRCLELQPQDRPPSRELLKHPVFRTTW
The experiment can be described thus: co-immunoprecipitation of endogenous proteins from 3DO cells.

T1 sequence (P08515 whole entry): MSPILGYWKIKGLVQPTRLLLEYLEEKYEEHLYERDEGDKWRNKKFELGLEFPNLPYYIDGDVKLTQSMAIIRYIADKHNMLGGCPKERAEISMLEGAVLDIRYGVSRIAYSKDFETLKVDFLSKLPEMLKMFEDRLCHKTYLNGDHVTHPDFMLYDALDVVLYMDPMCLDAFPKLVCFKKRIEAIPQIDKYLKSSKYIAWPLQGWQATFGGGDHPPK

B1: FL-JNKK2, JNKK2 (1-401; FL), 35S-labeled in vitro translated full-length human JNKK2/MKK7 (enzyme)
chain: MAASSLEQKLSRLEAKLKQENREARRRIDLNLDISPQRPRPTLQLPLANDGGSRSPSSESSPQHPTPPARPRHMLGLPSTLFTPRSMESIEIDHKLQEIMKQTGYLTIGGQRYQAEINDLENLGEMGSGTCGPVWKMRFRKTGHVIAVKQMRRSGNKEENKRILMDLDVVLKSHDCPYIVQCFGTFITNTDVFIAMELMGTCAEKLKKRMQGPIPERILGKMTVAIVKALYYLKEKHGVIHRDVKPSNILLDERGQIKLCDFGISGRLVDSKAKTRSAGCAAYMAPERIDPPDPTKPDYDIRADVWSLGISLVELATGQFPYKNCKTDFEVLTKVLQEEPPLLPGHMGFSGDFQSFVKDCLTKDHRKRPKYNKLLEHSFIKRYETLEVDVASWFKDVMAKT
modifications: 35S-methionine label
notes: Reticulocyte lysate translation from pBS-JNKK2; also called full-length MKK7; SacII (FL)
In the case of B1, in experiment [1], the binding result was “no binding”. For B2, the binding result in experiment [2] is “no binding”.

B3: Gadd45β (114-160), in vitro translated as GFP fusion (other, murine, UniProt P22339 114-160, looked up)
chain: ARDLHCLLVTNCHTDSWKSQGLVEVASYCEESRGNNQWVPYISLEER
modifications: cysteine pairing not given here; also: GFP fusion, letters not given here, 35S-methionine label
notes: The two places differ by one residue at the N-terminal limit; also called Gadd45β(113-160) in the methods; not shown: GFP of pEGFP-N1 (Clontech) with a short oligonucleotide-encoded linker
Take B3: the binding result in experiment [3] is listed as “no binding”.

B4: MKK7 peptide 2 (aa 142-166 of MKK7/JNKK2), in vitro translated, fused to eGFP (peptide)
chain: TGHVIAVKQMRRSGNKEENKRILMD
modifications: also: 35S-methionine label, place not given here, eGFP fusion, side not given here
notes: not shown: enhanced green fluorescent protein (eGFP, Clontech) fusion partner
For B4, in experiment [4], the binding result is reported as “no binding”.

B5: Gadd45β in cells (untagged full-length: endogenous in 3DO cells and MEFs, or stably expressed in 3DO-IκBαM-Gadd45β clones) (other, UniProt P22339 1-160, looked up)
chain: MTLEELVASDNAVQKMQAVTAAVEQLLVAAQRQDRLTVGVYEAAKLMNVDPDSVVLCLLAIDEEEEDDIALQIHFTLIQSFCCDNDIDIVRVSGMQRLAQLLGEPAETLGTTEARDLHCLLVTNCHTDSWKSQGLVEVASYCEESRGNNQWVPYISLEER
notes: also called endogenous Gadd45β
Turning to B5, the binding result in experiment [5] was “no binding”.
